Data on 4 molecules can be found in PMC10404244, “Control of motor landing and processivity by the CAP-Gly domain in the KIF13B tail” (Nature Communications, 2023).

Data set [1] addresses T1, tyrosinated microtubules polymerized from recombinant human α1A/βIII tubulin (human, UniProt Q71U36 1-451; Q13509 1-450).
T1 construct: human alpha-tubulin isotype α1A, fully tyrosinated; human beta-tubulin isotype βIII; Plasmids (pFAST-Dual) were gifts from A. Roll-Mecak; also called recombinant human tubulin (fully tyrosinated); not shown: His tag (from the HisTrap purification)
In words: TIRF microscopy microtubule-binding assay (standard deviation map); differentially labelled tyrosinated and detyrosinated taxol microtubules held by biotin-streptavidin in the same chamber, sfGFP motors in solution, 2 mM ATP, HP assay buffer pH 7.0. The conditions noted are these: both partners purified.

Data set [2] concerns the molecule itself. The data set can be described thus: mass photometry; 5, 25 and 100 nM protein in HP buffer (90 mM HEPES, 10 mM PIPES, 50 mM K-acetate, 2 mM Mg-acetate, 1 mM EGTA, 10% glycerol, pH 7.0), room temperature; result told over the whole range; monomer to dimer.

T1 sequence (Q71U36 whole entry, chain 1 of 2): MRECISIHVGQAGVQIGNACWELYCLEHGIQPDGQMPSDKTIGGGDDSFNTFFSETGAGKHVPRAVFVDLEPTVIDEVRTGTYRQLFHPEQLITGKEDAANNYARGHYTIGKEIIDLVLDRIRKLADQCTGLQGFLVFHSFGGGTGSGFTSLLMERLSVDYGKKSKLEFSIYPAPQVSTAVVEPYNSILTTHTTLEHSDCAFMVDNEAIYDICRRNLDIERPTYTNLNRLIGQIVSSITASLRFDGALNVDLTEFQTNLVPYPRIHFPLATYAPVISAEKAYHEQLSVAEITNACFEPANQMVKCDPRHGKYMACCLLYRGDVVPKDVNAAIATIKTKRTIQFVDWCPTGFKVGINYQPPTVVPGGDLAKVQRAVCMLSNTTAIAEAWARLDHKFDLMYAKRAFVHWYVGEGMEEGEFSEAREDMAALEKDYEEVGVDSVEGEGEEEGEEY
T1 sequence (Q13509 whole entry, chain 2 of 2): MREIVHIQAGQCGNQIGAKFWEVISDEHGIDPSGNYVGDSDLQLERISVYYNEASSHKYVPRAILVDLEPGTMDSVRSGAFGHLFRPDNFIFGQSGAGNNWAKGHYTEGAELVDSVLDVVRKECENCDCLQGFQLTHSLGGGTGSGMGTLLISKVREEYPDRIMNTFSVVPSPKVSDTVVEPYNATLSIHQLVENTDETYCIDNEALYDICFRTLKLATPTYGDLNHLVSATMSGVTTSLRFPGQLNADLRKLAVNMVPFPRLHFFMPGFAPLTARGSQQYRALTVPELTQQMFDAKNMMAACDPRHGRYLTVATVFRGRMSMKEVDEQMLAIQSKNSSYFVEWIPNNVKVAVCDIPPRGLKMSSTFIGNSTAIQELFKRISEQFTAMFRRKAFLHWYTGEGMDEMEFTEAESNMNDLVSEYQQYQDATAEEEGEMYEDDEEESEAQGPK

B1: full-length human KIF13B (wild type), C-terminal sfGFP-StrepII (natural protein)
chain: MGDSKVKVAVRIRPMNRRETDLHTKCVVDVDANKVILNPVNTNLSKGDARGQPKVFAYDHCFWSMDESVKEKYAGQDIVFKCLGENILQNAFDGYNACIFAYGQTGSGKSYTMMGTADQPGLIPRLCSGLFERTQKEENEEQSFKVEVSYMEIYNEKVRDLLDPKGSRQTLKVREHSVLGPYVDGLSKLAVTSYKDIESLMSEGNKSRTVAATNMNEESSRSHAVFKITLTHTLYDVKSGTSGEKVGKLSLVDLAGSERATKTGAAGDRLKEGSNINKSLTTLGLVISALADQSAGKNKNKFVPYRDSVLTWLLKDSLGGNSKTAMVATVSPAADNYDETLSTLRYADRAKHIVNHAVVNEDPNARIIRDLREEVEKLREQLTKAEAMKSPELKDRLEESEKLIQEMTVTWEEKLRKTEEIAQERQKQLESLGISLQSSGIKVGDDKCFLVNLNADPALNELLVYYLKEHTLIGSANSQDIQLCGMGILPEHCIIDITSEGQVMLTPQKNTRTFVNGSSVSSPIQLHHGDRILWGNNHFFRLNLPKKKKKAEREDEDQDPSMKNENSSEQLDVDGDSSSEVSSEVNFNYEYAQMEVTMKALGSNDPMQSILNSLEQQHEEEKRSALERQRLMYEHELEQLRRRLSPEKQNCRSMDRFSFHSPSAQQRLRQWAEEREATLNNSLMRLREQIVKANLLVREANYIAEELDKRTEYKVTLQIPASSLDANRKRGSLLSEPAIQVRRKGKGKQIWSLEKLDNRLLDMRDLYQEWKECEEDNPVIRSYFKRADPFYDEQENHSLIGVANVFLESLFYDVKLQYAVPIINQKGEVAGRLHVEVMRLSGDVGERIAGGDEVAEVSFEKETQENKLVCMVKILQATGLPQHLSHFVFCKYSFWDQQEPVIVAPEVDTSSSSVSKEPHCMVVFDHCNEFSVNITEDFIEHLSEGALAIEVYGHKINDPRKNPALWDLGIIQAKTRSLRDRWSEVTRKLEFWVQILEQNENGEYCPVEVISAKDVPTGGIFQLRQGQSRRVQVEVKSVQESGTLPLMEECILSVGIGCVKVRPLRAPRTHETFHEEEEDMDSYQDRDLERLRRKWLNALTKRQEYLDQQLQKLVSKRDKTEDDADREAQLLEMRLTLTEERNAVMVPSAGSGIPGAPAEWTPVPGMETHIPVIFLDLNADDFSSQDNLDDPEAGGWDATLTGEEEEEFFELQIVKQHDGEVKAEASWDSAVHGCPQLSRGTPVDERLFLIVRVTVQLSHPADMQLVLRKRICVNVHGRQGFAQSLLKKMSHRSSIPGCGVTFEIVSNIPEDAQGVEEREALARMAANVENPASADSEAYIEKYLRSVLAVENLLTLDRLRQEVAVKEQLTGKGKLSRRSISSPNVNRLSGSRQDLIPSYSLGSNKGRWESQQDVSQTTVSRGIAPAPALSVSPQNNHSPDPGLSNLAASYLNPVKSFVPQMPKLLKSLFPVRDEKRGKRPSPLAHQPVPRIMVQSASPDIRVTRMEEAQPEMGPDVLVQTMGAPALKICDKPAKVPSPPPVIAVTAVTPAPEAQDGPPSPLSEASSGYFSHSVSTATLSDALGPGLDAAAPPGSMPTAPEAEPEAPISHPPPPTAVPAEEPPGPQQLVSPGRERPDLEAPAPGSPFRVRRVRASELRSFSRMLAGDPGCSPGAEGNAPAPGAGGQALASDSEEADEVPEWLREGEFVTVGAHKTGVVRYVGPADFQEGTWVGVELDLPSGKNDGSIGGKQYFRCNPGYGLLVRPSRVRRATGPVRRRSTGLRLGAPEARRSATLSGSATNLASLTAALAKADRSHKNPENRKSWAS
notes: KIF13B, human, full-length cDNA from Transomics (BC172411); Predominantly monomeric in solution, minor dimer fraction (mass photometry); also called WT KIF13B; full-length KIF13B; source: Sf9 insect cells (baculovirus), purified (Strep-Tactin XT, gel filtration); not shown: sfGFP, C-terminal, kept
For B1, the binding result in data set [1] was “binds”.

B2: full-length human KIF13B K414A, C-terminal sfGFP-StrepII (natural protein, UniProt Q9NQT8 1-1826, looked up)
chain: MGDSKVKVAVRIRPMNRRETDLHTKCVVDVDANKVILNPVNTNLSKGDARGQPKVFAYDHCFWSMDESVKEKYAGQDIVFKCLGENILQNAFDGYNACIFAYGQTGSGKSYTMMGTADQPGLIPRLCSGLFERTQKEENEEQSFKVEVSYMEIYNEKVRDLLDPKGSRQTLKVREHSVLGPYVDGLSKLAVTSYKDIESLMSEGNKSRTVAATNMNEESSRSHAVFKITLTHTLYDVKSGTSGEKVGKLSLVDLAGSERATKTGAAGDRLKEGSNINKSLTTLGLVISALADQSAGKNKNKFVPYRDSVLTWLLKDSLGGNSKTAMVATVSPAADNYDETLSTLRYADRAKHIVNHAVVNEDPNARIIRDLREEVEKLREQLTKAEAMKSPELKDRLEESEKLIQEMTVTWEEALRKTEEIAQERQKQLESLGISLQSSGIKVGDDKCFLVNLNADPALNELLVYYLKEHTLIGSANSQDIQLCGMGILPEHCIIDITSEGQVMLTPQKNTRTFVNGSSVSSPIQLHHGDRILWGNNHFFRLNLPKKKKKAEREDEDQDPSMKNENSSEQLDVDGDSSSEVSSEVNFNYEYAQMEVTMKALGSNDPMQSILNSLEQQHEEEKRSALERQRLMYEHELEQLRRRLSPEKQNCRSMDRFSFHSPSAQQRLRQWAEEREATLNNSLMRLREQIVKANLLVREANYIAEELDKRTEYKVTLQIPASSLDANRKRGSLLSEPAIQVRRKGKGKQIWSLEKLDNRLLDMRDLYQEWKECEEDNPVIRSYFKRADPFYDEQENHSLIGVANVFLESLFYDVKLQYAVPIINQKGEVAGRLHVEVMRLSGDVGERIAGGDEVAEVSFEKETQENKLVCMVKILQATGLPQHLSHFVFCKYSFWDQQEPVIVAPEVDTSSSSVSKEPHCMVVFDHCNEFSVNITEDFIEHLSEGALAIEVYGHKINDPRKNPALWDLGIIQAKTRSLRDRWSEVTRKLEFWVQILEQNENGEYCPVEVISAKDVPTGGIFQLRQGQSRRVQVEVKSVQESGTLPLMEECILSVGIGCVKVRPLRAPRTHETFHEEEEDMDSYQDRDLERLRRKWLNALTKRQEYLDQQLQKLVSKRDKTEDDADREAQLLEMRLTLTEERNAVMVPSAGSGIPGAPAEWTPVPGMETHIPVIFLDLNADDFSSQDNLDDPEAGGWDATLTGEEEEEFFELQIVKQHDGEVKAEASWDSAVHGCPQLSRGTPVDERLFLIVRVTVQLSHPADMQLVLRKRICVNVHGRQGFAQSLLKKMSHRSSIPGCGVTFEIVSNIPEDAQGVEEREALARMAANVENPASADSEAYIEKYLRSVLAVENLLTLDRLRQEVAVKEQLTGKGKLSRRSISSPNVNRLSGSRQDLIPSYSLGSNKGRWESQQDVSQTTVSRGIAPAPALSVSPQNNHSPDPGLSNLAASYLNPVKSFVPQMPKLLKSLFPVRDEKRGKRPSPLAHQPVPRIMVQSASPDIRVTRMEEAQPEMGPDVLVQTMGAPALKICDKPAKVPSPPPVIAVTAVTPAPEAQDGPPSPLSEASSGYFSHSVSTATLSDALGPGLDAAAPPGSMPTAPEAEPEAPISHPPPPTAVPAEEPPGPQQLVSPGRERPDLEAPAPGSPFRVRRVRASELRSFSRMLAGDPGCSPGAEGNAPAPGAGGQALASDSEEADEVPEWLREGEFVTVGAHKTGVVRYVGPADFQEGTWVGVELDLPSGKNDGSIGGKQYFRCNPGYGLLVRPSRVRRATGPVRRRSTGLRLGAPEARRSATLSGSATNLASLTAALAKADRSHKNPENRKSWAS
notes: also called KI13B^K414A; source: Sf9 insect cells (baculovirus), purified (Strep-Tactin XT, gel filtration); not shown: sfGFP, C-terminal, kept
In the case of B2, the binding result in data set [2] was “binds”.

B3: full-length human KIF13B V178Q, C-terminal sfGFP-StrepII (natural protein, UniProt Q9NQT8 1-1826, looked up)
chain: MGDSKVKVAVRIRPMNRRETDLHTKCVVDVDANKVILNPVNTNLSKGDARGQPKVFAYDHCFWSMDESVKEKYAGQDIVFKCLGENILQNAFDGYNACIFAYGQTGSGKSYTMMGTADQPGLIPRLCSGLFERTQKEENEEQSFKVEVSYMEIYNEKVRDLLDPKGSRQTLKVREHSQLGPYVDGLSKLAVTSYKDIESLMSEGNKSRTVAATNMNEESSRSHAVFKITLTHTLYDVKSGTSGEKVGKLSLVDLAGSERATKTGAAGDRLKEGSNINKSLTTLGLVISALADQSAGKNKNKFVPYRDSVLTWLLKDSLGGNSKTAMVATVSPAADNYDETLSTLRYADRAKHIVNHAVVNEDPNARIIRDLREEVEKLREQLTKAEAMKSPELKDRLEESEKLIQEMTVTWEEKLRKTEEIAQERQKQLESLGISLQSSGIKVGDDKCFLVNLNADPALNELLVYYLKEHTLIGSANSQDIQLCGMGILPEHCIIDITSEGQVMLTPQKNTRTFVNGSSVSSPIQLHHGDRILWGNNHFFRLNLPKKKKKAEREDEDQDPSMKNENSSEQLDVDGDSSSEVSSEVNFNYEYAQMEVTMKALGSNDPMQSILNSLEQQHEEEKRSALERQRLMYEHELEQLRRRLSPEKQNCRSMDRFSFHSPSAQQRLRQWAEEREATLNNSLMRLREQIVKANLLVREANYIAEELDKRTEYKVTLQIPASSLDANRKRGSLLSEPAIQVRRKGKGKQIWSLEKLDNRLLDMRDLYQEWKECEEDNPVIRSYFKRADPFYDEQENHSLIGVANVFLESLFYDVKLQYAVPIINQKGEVAGRLHVEVMRLSGDVGERIAGGDEVAEVSFEKETQENKLVCMVKILQATGLPQHLSHFVFCKYSFWDQQEPVIVAPEVDTSSSSVSKEPHCMVVFDHCNEFSVNITEDFIEHLSEGALAIEVYGHKINDPRKNPALWDLGIIQAKTRSLRDRWSEVTRKLEFWVQILEQNENGEYCPVEVISAKDVPTGGIFQLRQGQSRRVQVEVKSVQESGTLPLMEECILSVGIGCVKVRPLRAPRTHETFHEEEEDMDSYQDRDLERLRRKWLNALTKRQEYLDQQLQKLVSKRDKTEDDADREAQLLEMRLTLTEERNAVMVPSAGSGIPGAPAEWTPVPGMETHIPVIFLDLNADDFSSQDNLDDPEAGGWDATLTGEEEEEFFELQIVKQHDGEVKAEASWDSAVHGCPQLSRGTPVDERLFLIVRVTVQLSHPADMQLVLRKRICVNVHGRQGFAQSLLKKMSHRSSIPGCGVTFEIVSNIPEDAQGVEEREALARMAANVENPASADSEAYIEKYLRSVLAVENLLTLDRLRQEVAVKEQLTGKGKLSRRSISSPNVNRLSGSRQDLIPSYSLGSNKGRWESQQDVSQTTVSRGIAPAPALSVSPQNNHSPDPGLSNLAASYLNPVKSFVPQMPKLLKSLFPVRDEKRGKRPSPLAHQPVPRIMVQSASPDIRVTRMEEAQPEMGPDVLVQTMGAPALKICDKPAKVPSPPPVIAVTAVTPAPEAQDGPPSPLSEASSGYFSHSVSTATLSDALGPGLDAAAPPGSMPTAPEAEPEAPISHPPPPTAVPAEEPPGPQQLVSPGRERPDLEAPAPGSPFRVRRVRASELRSFSRMLAGDPGCSPGAEGNAPAPGAGGQALASDSEEADEVPEWLREGEFVTVGAHKTGVVRYVGPADFQEGTWVGVELDLPSGKNDGSIGGKQYFRCNPGYGLLVRPSRVRRATGPVRRRSTGLRLGAPEARRSATLSGSATNLASLTAALAKADRSHKNPENRKSWAS
notes: source: Sf9 insect cells (baculovirus), purified (Strep-Tactin XT, gel filtration); not shown: sfGFP, C-terminal, kept
In the case of B3, the binding result in data set [2] was “binds”.

B4: human KIF13B CAP-Gly fragment (a.a. 1685–1826), N-terminal sfGFP-StrepII (domain or fragment)
chain: QALASDSEEADEVPEWLREGEFVTVGAHKTGVVRYVGPADFQEGTWVGVELDLPSGKNDGSIGGKQYFRCNPGYGLLVRPSRVRRATGPVRRRSTGLRLGAPEARRSATLSGSATNLASLTAALAKADRSHKNPENRKSWAS
notes: KIF13B, human, a.a; 1685–1826: CAP-Gly domain and an ~80 residue unstructured C-terminal region; The sfGFP-StrepII tag is joined to the N-terminus of the fragment through a 3xGGGGS linker (pET28a); the methods hold here; also called KIF13B^CG; KIF13^CG; source: E. coli BL21-CodonPlus (DE3)-RIPL, purified (Strep-Tactin XT, HiTrap Q, Superdex 200); not shown: sfGFP, N-terminal, kept
Regarding B4, the binding result in data set [1] is listed as “binds”.
